For 120 sequences, switch fluorescence ratio results are on record in the supplement of paper PMC10126150.

± gives the standard deviation of the averaged measurements.
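Further: ATP exposure 15 min at 22 °C before imaging.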

The series relates to ATP. As to the kind of experiment: switch fluorescence ratio, 500 uM ATP over buffer (Cy3 cluster intensity, sum of 5 cycles each) (fold (ratio)); higher = stronger signal-on switching upon ATP binding; sequences stand for … in TCGTCGGCAGCGTCAGATGTGTATAAGAGACAGTTTTTTTTTTTTTTTTTTTTTTTTT…TC. The note with it: aptamer strand: ATP DNA aptamer (quencher-CACCTGGGGGAGTATTGCGGAGGAAGG + anchor), 100 nM annealed; ATP concentration: 500 uM. In a few lines: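 The fluorescence ratio divides summed target-cycle Cy3 intensity by summed buffer-cycle Cy3 intensity for each cluster and is averaged per switch-domain sequence. Cy3-labelled switching-strand clusters on a modified Illumina MiSeq flow-cell were annealed to 100 nM quencher-labelled ATP aptamer, then imaged in selection buffer and again after 15 min with 500 uM ATP at 22 °C. Five such cycles were run, with NaOH stripping and re-annealing between them, and clusters outside 100-1000 RFU were excluded.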
With GTTTTCTATG, the switch fluorescence ratio was found to be 1 ± 0.021.

As for TAATTGGGGT, the switch fluorescence ratio was 0.994 ± 0.018.

Turning to CACTAGTTTT, the switch fluorescence ratio came out at 1.01 ± 0.012.

Turning to GAAGGGGTGT, the switch fluorescence ratio came out at 1.01 ± 0.031.

On to GCGTTTGAGG, for which the switch fluorescence ratio amounted to 0.981 ± 0.017.

For the sequence GGGGGATAGC, the switch fluorescence ratio stood at 0.991 ± 0.023.

Regarding TTTGTCATGT, the switch fluorescence ratio was 0.976 ± 0.036.

For GATCAGATGT, the switch fluorescence ratio is 0.958 ± 0.048.

In the case of GGGAAAGCGT, the switch fluorescence ratio is 1.03 ± 0.035.

Turning to CGGAAGACGT, the switch fluorescence ratio came to 1.02 ± 0.036.

On to ATTATGGCGA, for which the switch fluorescence ratio was determined as 1.04 ± 0.023.

As for GTTCTGGGGT, the switch fluorescence ratio stood at 1 ± 0.016.

In the case of GAAACAGGCA, the switch fluorescence ratio worked out at 0.963 ± 0.017.

Consider CAAGAAGAGT, for which the switch fluorescence ratio worked out at 1.01 ± 0.04.

Regarding TGATATCCGA, the switch fluorescence ratio came out at 1.04 ± 0.013.

For the sequence TCTGTCTATA, the switch fluorescence ratio was determined as 1.03 ± 0.026.

As to CGTAGTGTAG, the switch fluorescence ratio was found to be 1.02 ± 0.052.

GACGTATATG: the switch fluorescence ratio was found to be 0.973 ± 0.048.

As to TTGCTATTCG, the switch fluorescence ratio came to 0.992 ± 0.05.

Take AAATGAGCGG: the switch fluorescence ratio stood at 0.9824 ± 0.0046.

Turning to TGAAATATGG, the switch fluorescence ratio worked out at 1 ± 0.017.

In the case of AGTGTCTATT, the switch fluorescence ratio stood at 0.981 ± 0.0055.

Take ATGTTAAGTC: the switch fluorescence ratio amounted to 0.97 ± 0.049.

For CCGGTGGATT, the switch fluorescence ratio amounted to 1.21 ± 0.3.

On to TCGGGGAGAA, for which the switch fluorescence ratio was found to be 0.992 ± 0.073.

For CGGAACGCTC, the switch fluorescence ratio is 1.71 ± 0.025.

Turning to AGTTATAAAG, the switch fluorescence ratio amounted to 0.986 ± 0.037.

TGATCTTTCT: the switch fluorescence ratio is 1.01 ± 0.059.

In the case of GGGTACTGTA, the switch fluorescence ratio was 1.09 ± 0.041.

On to TTGGAAAATA, for which the switch fluorescence ratio stood at 1.009 ± 0.0042.

GGTTTCCTGT: the switch fluorescence ratio is 1.01 ± 0.043.

Regarding TTCTGGTGTG, the switch fluorescence ratio worked out at 0.9703 ± 0.0072.

As for AATCAGTTTG, the switch fluorescence ratio was 1.022 ± 0.0094.

For the sequence TTTGGTCGGT, the switch fluorescence ratio was 0.986 ± 0.081.

For TGGTCGCGTT, the switch fluorescence ratio was found to be 0.988 ± 0.043.

GATGGGGGAG: the switch fluorescence ratio worked out at 0.999 ± 0.018.

On to TCAGGGTTTT, for which the switch fluorescence ratio stood at 1.01 ± 0.018.

Regarding TTCGGACCAA, the switch fluorescence ratio was determined as 1.46 ± 0.096.

On to GGCGTTGGGT, for which the switch fluorescence ratio turned out to be 0.9929 ± 0.0096.

AGTTTTTAAT: the switch fluorescence ratio was 0.999 ± 0.018.

With GTTGCTACCT, the switch fluorescence ratio amounted to 1.05 ± 0.038.

As for CGTTTTGGGG, the switch fluorescence ratio amounted to 0.999 ± 0.032.

On to GACTCCAGGC, for which the switch fluorescence ratio was found to be 1.22 ± 0.069.

For GATCTATGTC, the switch fluorescence ratio was 0.989 ± 0.066.

Take ACCTTTTTCA: the switch fluorescence ratio stood at 1.021 ± 0.0084.

As for ATAAGGGGTG, the switch fluorescence ratio was 1.02 ± 0.069.

Consider CTGTCCATCC, for which the switch fluorescence ratio amounted to 1.11 ± 0.035.

As for GCCGGCAATT, the switch fluorescence ratio was determined as 1.01 ± 0.015.

For the sequence AATTACGTTT, the switch fluorescence ratio came to 1.06 ± 0.062.

Turning to AAGGAAGCCG, the switch fluorescence ratio was 1.06 ± 0.044.

Regarding TGGTTTCA, the switch fluorescence ratio came out at 1.02 ± 0.041.

As to GCTGGTGCAC, the switch fluorescence ratio came out at 1.01 ± 0.026.

With CTGATTCCTG, the switch fluorescence ratio came out at 1.01 ± 0.04.

For the sequence AGAAGTACGT, the switch fluorescence ratio came to 1.04 ± 0.013.

On to AAATTCATAG, for which the switch fluorescence ratio turned out to be 1.019 ± 0.0033.

As to TGAAGGTCGG, the switch fluorescence ratio worked out at 0.9917 ± 0.0039.

Turning to TATAGGATGG, the switch fluorescence ratio came out at 0.98 ± 0.028.

Take CCTGTGTCCG: the switch fluorescence ratio was 1.12 ± 0.052.

With CAGAGGGGGA, the switch fluorescence ratio came to 1.04 ± 0.036.

With GCCGATGCTG, the switch fluorescence ratio worked out at 0.978 ± 0.042.

CCGGGGTTGT: the switch fluorescence ratio amounted to 1.16 ± 0.22.

For the sequence GGCCCGGCAC, the switch fluorescence ratio was determined as 1.01 ± 0.013.

Consider CTACTATAGG, for which the switch fluorescence ratio was determined as 0.9889 ± 0.0064.

Consider AGAATTTCAT, for which the switch fluorescence ratio was 1.01 ± 0.0045.

For ATGGCAGACT, the switch fluorescence ratio was 1.02 ± 0.052.

As for GTTGCGTCGA, the switch fluorescence ratio turned out to be 0.997 ± 0.016.

As for GGCGGAGGGG, the switch fluorescence ratio was 0.998 ± 0.024.

Consider TTCAGCCCGG, for which the switch fluorescence ratio came out at 0.986 ± 0.056.

TAATTTGCGT: the switch fluorescence ratio was 1 ± 0.019.

For the sequence AGGCGATTTA, the switch fluorescence ratio was found to be 0.976 ± 0.022.

As for AGAGTGTTTC, the switch fluorescence ratio is 0.943 ± 0.038.

As for AGTAAGGGCG, the switch fluorescence ratio came to 0.992 ± 0.039.

Consider GGGGATGTGA, for which the switch fluorescence ratio turned out to be 0.967 ± 0.037.

As to CTTGTTGATG, the switch fluorescence ratio was found to be 1 ± 0.036.

As to TTCAATGCTC, the switch fluorescence ratio came to 2.17 ± 0.82.

Regarding GTGGTGAGGT, the switch fluorescence ratio is 0.966 ± 0.02.

As for TCAAGGCGGA, the switch fluorescence ratio amounted to 0.99 ± 0.012.

CGAAGGCGTA: the switch fluorescence ratio turned out to be 1.027 ± 0.0062.

CTTGGGAATT: the switch fluorescence ratio was determined as 0.979 ± 0.044.

With GGCGTCAAGG, the switch fluorescence ratio was determined as 0.996 ± 0.026.

On to GGTATAAGGG, for which the switch fluorescence ratio came out at 0.997 ± 0.02.

As to TCGTTTGGTA, the switch fluorescence ratio was found to be 0.958 ± 0.027.

TGGGAACGAG: the switch fluorescence ratio was 1.01 ± 0.017.

On to TATGTAGTCG, for which the switch fluorescence ratio is 1.02 ± 0.038.

With TTATATTGTT, the switch fluorescence ratio was found to be 0.984 ± 0.017.

TTGACGCTAA: the switch fluorescence ratio was 2.37 ± 0.65.

Turning to CGATCGGTTG, the switch fluorescence ratio is 0.9499 ± 0.0033.

With GGCATACCGT, the switch fluorescence ratio amounted to 0.997 ± 0.0052.

TATAGGCCTC: the switch fluorescence ratio came out at 1.001 ± 0.0064.

Take CGTGTTTGCC: the switch fluorescence ratio stood at 1 ± 0.02.

As for CGGTTATCGG, the switch fluorescence ratio came out at 1.002 ± 0.0031.

With CTGGTAGACT, the switch fluorescence ratio was determined as 0.992 ± 0.023.

For the sequence TGTTAAAGGG, the switch fluorescence ratio turned out to be 1.03 ± 0.024.

On to GGGTTTGCCT, for which the switch fluorescence ratio was determined as 1.0216 ± 0.0002.

In the case of TTTGAATGGA, the switch fluorescence ratio is 1 ± 0.012.

As for TCCGGGGCGG, the switch fluorescence ratio was 1.11 ± 0.06.

Regarding AACGCGTGGG, the switch fluorescence ratio is 1.01 ± 0.003.

For the sequence TTTGATTGAA, the switch fluorescence ratio came to 0.975 ± 0.03.

ATGGGCTAGA: the switch fluorescence ratio came out at 0.9731 ± 0.0052.

ACTTGGCAAA: the switch fluorescence ratio came to 1.16 ± 0.02.

Turning to GGAGTGGTTG, the switch fluorescence ratio stood at 0.999 ± 0.036.

GCTATTGGGG: the switch fluorescence ratio was determined as 0.993 ± 0.014.

Take TAGTTCTGGG: the switch fluorescence ratio is 0.9428 ± 0.0012.

Regarding TCAGGGAGTG, the switch fluorescence ratio is 0.9758 ± 0.0095.

CCGGTCTAGC: the switch fluorescence ratio stood at 1.14 ± 0.041.

Consider ATGTGATATG, for which the switch fluorescence ratio is 0.994 ± 0.042.

TTTAGGTTAA: the switch fluorescence ratio worked out at 0.9752 ± 0.0074.

With AAGGTTAGGT, the switch fluorescence ratio stood at 1.03 ± 0.041.

For CACCTAGTTT, the switch fluorescence ratio was determined as 1.01 ± 0.052.

Consider AATACAGGCT, for which the switch fluorescence ratio was found to be 0.999 ± 0.024.

With ATTTTATGAC, the switch fluorescence ratio was 1.008 ± 0.0025.

With TCGGTGGGGC, the switch fluorescence ratio amounted to 1.01 ± 0.019.

As for TATGGGCATT, the switch fluorescence ratio stood at 0.998 ± 0.016.

With TTGGGACCGT, the switch fluorescence ratio worked out at 1 ± 0.0015.

As for TCACAGCCG, the switch fluorescence ratio is 1.046 ± 0.0085.

As for CGTACAGTGG, the switch fluorescence ratio turned out to be 1.02 ± 0.046.

In the case of GTTGTGTCTG, the switch fluorescence ratio amounted to 0.979 ± 0.013.

As to ACTGGTTTTG, the switch fluorescence ratio is 1.01 ± 0.022.

TATCTCGGGA: the switch fluorescence ratio was determined as 0.988 ± 0.02.

Regarding GGACGGAAGA, the switch fluorescence ratio is 1.101 ± 0.01.
